Legend:
[1] = test system: Lambda exonuclease; experiment: cleavage_in_vitro; conditions: rate at 30,000 psi, 20 C; 89 mM glycine-KOH pH 9.4, 3.3 mM MgCl2 assay buffer; reversible pressure inhibition
[2] = test system: T4 DNA polymerase (3'-5' exonuclease) (Bacteriophage T4?); experiment: cleavage_in_vitro; conditions: atmospheric pressure, room temperature

Row | Substance | activity [1] | activity (bp digested in 20 min) [2]
1 | Lambda DNA HindIII digest fragments | 0.1 bases/s | –
2 | DNA size markers (lambda DNA) | – | 100

From patent publication US6036923
